Laboratory results as given in patent publication US20160053277A1, “Compositions Having Dicamba Decarboxylase Activity and Methods of Use” (PIONEER HI-BRED INTERNATIONAL, INC., priority 2013, published 2016).

Columns and labels:
[1] = 14C assay with IPTG-induced recombinant E. coli cells: 14CO2 captured from [14C]-carboxyl-labeled dicamba; details: for Enzymatic Detection level: dicamba decarboxylation activity of the protein of the given SEQ ID NO, High / Low / No; for Dicamba Decarboxylase Activity: induced recombinant E. coli cells, [14C]-carboxyl-labeled dicamba, 14CO2 capture
[2] = Saturation mutagenesis of SEQ ID NO:109: dicamba decarboxylation activity of point mutants (carbon dioxide released); details: decarboxylation activity (carbon dioxide released) of point mutant compared with unmutated backbone protein; backbone SEQ ID NO: 109
[3] = Shuffled variant libraries: 14CO2 capturing assay in 384-well format; details: decarboxylation activity (carbon dioxide released) compared with unmutated backbone protein SEQ ID NO 133 (DDEC0201)

| Molecule | Enzymatic Detection level [1] | Dicamba Decarboxylase Activity [1] | Fold Activity [2] | Fold Activity [3] |
| --- | --- | --- | --- | --- |
| 24 (protein, Aspergillus niger) MALGKVVLEEAYERPNMKEKSNHEAGLYIAPNDRPRYMRQINDINQERLKLADAHGVGYTIISLTVPGIQGIFDKTEAERVATETNNWAAEQIKNHRDRLGAFACLSMHDPAQAANELRRCVQELGFHGALLCSFQHAGPDGETYLFYDQPKYDVFWKALTELDVPLYIHPAAPTGSILERLYAQRPALIGPPLSFANDVSLHTLGIISNGVFDRFPNLKIIIGHLGEHIPFDFWRIDHWFRDVKKPIADEEGRVMAQKSLYHYFKHNIWLTTSGHFSTPTLKYVVNEIGVDRVLFSVDYPYETTESGCNWWDHDKDAIVEAVGGVDNYYAIGRENAKKLLRLDKFHDSDAR | Low | Low | 1.6 | – |
| 25 (protein, listed as Acidovorax avenae) MAQGKIGLEEHFAIPETLQDSAGFVPGDYWKELSLRLLDIHERRLREMDENGMEMMILSLNAPAVQAIPDTKKAVEIAVRANDFLAEQVARRPDRFQAFAALPMQDPDLATRELERCMQDLGFRGALVNGFSQVGTPENVVYYDAPQYGDFWAAVERLDAPFYLHPRNPIASWAQIYQGHPWLMGPTWAFAQETAVHALRLMASGLFDRHPGLRIILGHLGEGLPYNMWRVDHRNAWVDMPKGYPAKRKLCDYFHENFYLTTSGNFRTQTLIDALLEVGADRILFSTDWPFENVDHAAHWFDDAAISEADRLKIGRTNALSLFKLPQG | Low | Low | 1 | – |
| 18 (protein, listed as Legionella pneumophila) MAIVDFETHFITEACIDYLTQRQEVPKLVPELNGAYTMCFTPDVSLFHTSALMEELLSLNEQRLAIMDQAGVTIQVLSLTTINGIDSCPGDENKSTALAREVNDQLYSAIQKHPERFKGFASISPYDVKEGVKELERAISQLGFVGWLTHSNFGQDNYLDDKIYWPLLEAAESLNIPIYLHPNVPIMREFGKYGFALGGSALGFEFDTALCLMRMILGGVFDAFPKLKIMLGHLGETMPFLMERLDHLYRIPDLKPYRPSIQRIPSEVLRQNVYITTSGRFFVPALRYVLEVMGEDRVLFASDYPMESLLDATRFIQDSDLSNQTKQKIFSINAKNLNLI | Low | Low | 1.2 | – |
| 20 (protein, listed as Legionella pneumophila) MAIVDFETHFITEACIDYLTQRQEVPKLVPDLNGAYTMCFTPDVSLFHTSALMEELLSLNEQRLAIMDQAGVTIQVLSLTTINGIDSCPGDENKSTALAREVNDQLYSAIQRHPERFKGFASISPYDVKEGVKELERAISQLGFVGWLTHSNFGQDNYLDDKTYWPLLEAAEGLNIPIYLHPNVPIMREFGKYGFALGGSALGFEFDTALCLMRMILGGVFDAFPKLKIMLGHLGETMPFLMERLDHLYRIPDLKAYRPSIQRIPSEVLRQNVYITTSGRFFVPALRYVLEVMGEDRVLFASDYPMESLLDATRFIQDSDLSNQTKQKIFSINAKNLNLI | Low | Low | 1.8 | – |
| 23 (protein, listed as Aplysina aerophoba) MAIDIDARSQPGLETARRAMSRRDFLGGAAAFGITAAATTALPASTAAGEEEDLFLLGLEEHFATAELRRLNGIQFPQGTPRFDINDVGAGRIADMDAAGIDIQVLSALTPGAQNLPGAEGVAYARRLNSWVAHEVIPAYPGRFRAFATLPLSEPQAAADELEYAVRELGFLGCMTYGAVDGKFLDHADFVPVLARAETLDVPIYIHPNWASPQVMDTYYNGLGNEWVSRVLSGAGYGWHQEVALQCLRMIASGVFDRFPRLQIIVGHMGEGLPFFYWRFGDDLARITADTLEKPVQQYFHDNFWITTSAFFRDELLRLVLSVMGEDRVMFAVDYPFVSNKVGADWFRAVDLPRNVKEKIAHKNAERLLKIGPF | Low | Low | 1.5 | – |
| 123 (protein, Dicamba decarboxylase variant clone: S03902153) MAQGKVALEEHFAIPETLQDSAGFVPGDYWKELQHRLLDIQDTRLKLMDAHGIETMILSLAAPAVQAIPDRRKAIEIARRANDVLAEECAKRPDRFLAFAALPLQDPDAATEELQRCVNDLGFVGALVNGFSQEGDGQTPLYYDLPQYRPFWGEVEKLDVPFYLHPRNPLPQDSRIYDGHPWLLGPTWAFAQETAVHALRLMASGLFDEHPRLNIILGHMGEGLPYMMWRIDHRVAWVKLPPRYPAKRRFMDYFNENFHITTSGNFRTQTLIDAILEIGADRILFSTDWPFENIDHASDWFNATSIAEADRVKIGRTNARRLFKLDGA | High | – | 1.3 | – |
| 277 (protein, Dicamba decarboxylase variant) MAQGKVALEEHFAIPETLQDSAGFVPGDYWKELQHRLLDIQDTRLKLMDKHGIETMILSLAAPAVQAIPDRRKAIEIARRANDMLAEECAKRPDRFLAFAALPLQDPDAATEELQRCVNDLGFVGALVNGFSQEGDGQTPLYYDLPQYRPFWGEVEKLDVPFYLHPRNPLPQDSRIYDGHPWLLGPTWAFAQETAVHALRLMASGLFDERPRLNIILGHMGEGLPYMMYRIDHRIAWVHEPPRYPAKRRFMDYFNENFHITTSGNFRTQTLIDAILEIGADRILFSTDWPFENIDHATAWFNATSIAEADRVKIGRTNARRLFKLDGA | – | – | – | 0.9 |
| 274 (protein, Dicamba decarboxylase variant) MAQGKVALEEHFAIPETLQDSAGFVPGDYWKELQHRLLDIQDTRLKLMDAHGIETMILSLAAPAVQAIPDRRKAIEIARRANDFLAEECAKRPDRFLAFAALPMQDVDAATEELQRCVNDLGFVGALVNGFSVEGDGQTPLYYDLPQYRPFWGEVEKLDVPFYLHPRNPLPQDSRIYDGHPWLLGPTWAFAQETAVHALRLMASGLFDEHPRLNIILGHLGEGLPYMMYRIDHRIAWVKLPPRYPAKRRFMDYFNENFHITTSGNFRTQTLIDAILEIGADRILFSTDWPFENIDHAADWFNATSIAEADRVKIGRTNARRLFKLDLD | – | – | – | 1.0 |
| 279 (protein, Dicamba decarboxylase variant) MAQGKVALEEHFAIPETLQDSAGFVPGDYWKELQHRLLDIQDTRLRLMDAHGIETMILSLAAPAVQAIPDRRKAIEIARRANDMLAEECAKRPDRFLAFAALPLQDPDAATEELQRCVNDLGFVGALVNGFSQEGDGQTPLYYDLPQYRPFWGEVEKLDVPFYLHPRNPLPQDSRIYDGHPWLLGPTWAFAQETAVHALRLMASGLFDEHPRLNIILGHLGEGLPYMMYRIDHRIAWVHEPPRYPAKRRFMDYFNENFHITTSGNFRTQTLIDAILEIGADRILFSTDWPFENIDHAADWFNATSIAEADRLKIGRTNARRLFKLDGD | – | – | – | 0.9 |
| 278 (protein, Dicamba decarboxylase variant) MAQGKVALEEHFAIPETLQDSAGFVPGDYWKELQHRLLDIQDTRLKLMDAHGIETMILSLAAPAVQAIPDRRKAIEIARRANDFLAEECAKRPDRFLAFAALPLQDPDAATEELQRCVNDLGFVGALVNGFSQEGDGQTPLYYDLPQYRPFWGEVEKLDVPFYLHPRNPLPQDSRIYDGHPWLLGPTWAFAQETAVHALRLMASGLFDEHPRLNIILGHMGEGLPYMMYRIDHRIAWVHEPPRYPAKRRFMDYFNENFHITTSGNFRTQTLIDAILEIGADRILFSTDWPFENIDHAAAWFNATSIAEADRLKIGRTNARRLFKLDGA | – | – | – | 1.2 |
| 275 (protein, Dicamba decarboxylase variant) MAQGKVALEEHFAIPETLQDSAGFVPGDYWKELQHRLLDIQDTRLKLMDAHGIETMVLSLAAPAVQAIPDRRKAIEIARRANDMLAEECAKRPDRFLAFAALPLQDPDAATEELQRCVNDLGFVGALVNGFSQEGDGQTPLYYDLPQYRPFWGEVEKLDVPFYLHPRNPLPQDSRIYDGHPWLLGPTWAFAQETAVHALRLMASGLFDEHPRLNIILGHMGEGLPYMMYRIDHRIAWVHEPPRYPAKRRFMDYFNENFHITTSGNFRTQTLIDAILEIGADRILFSTDWPFENIDHAAAWFNATSIAEADRVKIGRTNARRLFKLDGA | – | – | – | 1.0 |
| 276 (protein, Dicamba decarboxylase variant) MAQGKVALEEHFAIPETLQDSAGFVPGDYWKELQHRLLDIQDTRLKLMDAHGIETMILSLAAPAVQAIPDRRKAIEIARRANDLLAEECAKRPDRFLAFAALPMQDPDAATEELQRCVNDLGFVGALVNGFSQEGDGQTPLYYDLPQYRPFWGEVEKLDVPFYLHPRNPLPQDSRIYDGHPWLLGPTWAFAQETAVHALRLMASGLFDEHPRLNIILGHMGEGLPYMMYRIDHRIAWVKLPPRYPAKRRFMDYFNENFHITTSGNFRTQTLIDAILEIGADRILFSTDWPFENIDHAADWFNATSIAEADRVKIGRTNARRLFKLDGA | – | – | – | 1.0 |
| 27 (protein, listed as Aspergillus oryzae) MALGKIALEEAFALPRFEEKTRWWASLFSTDAETHVKEITDINKIRIEHADKHGVGYQILSYTAPGVQDIWDPVEAQALAVEINDYIAEQVRVNPDRFGAFATLSMHNPKEAADELRRCVEKYGFKGALVNDTQRAGPDGDDMIFYDNADWDIFWQTCTELDVPFYMHPRNPTGTIYEKLWADRKWLVGPPLSFAHGVSLHVLGMVTNGVFDRHPKLQIIMGHLGEHVPFDMWRINHWFEDRKKLLGLAETCKKTIRDYFAENIWITTSGHFSTTTLNFCMAEVGSDRILFSIDYPFETFSDACEWFDNAELNGTDRLKIGRENAKKLFKLDSYKDSSA | No | No | 1 | – |
